According to the DeepSol protein solubility set:

test: soluble on expression in E. coli; label from the status in PepcDB or PDB records

Soluble on expression in E. coli, soluble:
MTESYDVVVVGGGPVGLATAWQVAERGHRVLVLERHTFFNENGGTSGAERHWRLQYTQEDLFRLTLETLPLWRALESRCERRLIHEIGSLWFGDTDVVTNEGQISGTAAMMDKLSVRYEWLKATDIERRFGFRGLPRDYEGFLQPDGGTIDVRGTLAALFTLAQAAGATLRAGETVTELVPDADGVSVTTDRGTYRAGKVVLACGPYTNDLLEPLGARLAYSVYEMAIAAYRQATPVTEAPFWFAFQQPTPQDTNLFFGFGHNPWAPGEFVRCGPDFEVDPLDHPSAATGVADRRQMDRLSGWLRDHLPTVDPDPVRTSTCLAVLPTDPERQFFLGTARDLMTHGEKLVVYGAGWAFKFVPLFGRICADLAVEDSTAYDISRLAPQSALLEHHHHHH
MPQIYFSAAERRPKFVMKTGLSATEKNEVIKAAYRQIFERDITRAYSLSISDLESKVKNGDISMKEFVRRLAKSPLYQKQFYQPFINSRVIELAFRHILGRGPSSREEVQKYFSIISNGGLPALVDALVDSAEYSDYFGEETVPYLRGLEHHHHHH
MERLQKVIARAGIASRRKAEELILQGRVKVNGRVVKELGVKVGPRDDVEVDGIPIEREEPVYYLLYKPRGVISSVKDDRGRKVVTDFFKDLDKRIYPIGRLDYDTSGLLLLTNDGDFANLLMHPRYEIEKVYIAKVKGIPTHEQLKRLEQGVQLEDGMTAPAKVKLLSADRKKGTAIVEIRIHEGRNRQVRRMFEAIGCEVLKLKRERYAFLDLKGLRPGEYRELTPHEVKLLRVLAQSGGRK
LPFDGIVTKNIVSELSDILTGARIEKIYQPEPDEIIINLRTKGQNLKLLLSANASYPRIHLTDVTKENPINPPVFCMLLRKHLSGGKITKIDFHDFERVVTIHIETIDELGDLTFKKLVVEIMGKHSNIILVNNENKIIDSIKHVDSDISRVREVMPARPYTLPPGQDKINPLELDIDLLFSKAKEQGDPRISKFFLNNIKGFSPLLCEEICHRADVDPRLPVSSLSEDTIQNLKKVLKEIISKIENSEFTPCIIWNGDDRQKAVDFHSLEIKQYNTVDFYPSISRVLDLFYTIKDTSERLAQKKADLAKILNNCIDRCNKKISIHMDTLREVAEREKFKLYGELITANIYCIPKNASKVSLLNYYSENGEYVEVPLDENLLPQENAQRYFKKYAKAKAAYIHATQQLEEARGELSYLESVLHSLENSNSFEDIDDIRQELAEQGYLPSKKKRPEKKNSKNFTPYTYKSTDGFYIYVGKNNVQNDFLTLKFASSNDIWLHTKNIPGSHVIIRKDRGEIPDSTLFQAAMLAAYHSKAKNSSHVEVDYTKVKNVKKPNGAKPGMVIYDNYKTIIVTPDENVVNNLRMENR
MKQEFVAAIEIDGTGRIHVTPGESQFPYIYREAMEVSWNESTRSLHSPVPREWSYAQWLQQIFAAASEQGVKLVLGPNTRWVNVPNELRAELTHAAAA
MTKSRKQKQKKQDFLRKKLKVGKPKEKARNATDTSFVSKTISIRNQHLDQNPHDLTKRLTLLKHHNINVRKETLTTFQKSIPSIIKSRLMTPLLTQSIPLICDESQQVRQGLIDLVDEIGSHDAEILKLHCNIFVLYINMAMTHIVTQIQADSTKFLSHLLKYCGDEVVRKSWVKLLNGVFGVLGWGQVGKNDSASIVQTKKRNAKYVTIHLNALYTLVEYGCQDERARSDGDTAETTEDSGTLRNPYLIPDYPQPFEHLKLFTRELKVQDATSSGVNATLLSLATQDIDTRKAVFIEQFLPIVRKKIEVIIKEGGECGKSANKLKTLLAKIFD
MVPAESNAVQAKLAKTLQRFENKIKAGDYYEAHQTLRTIANRYVRSKSYEHAIELISQGALSFLKAKQGGSGTDLIFYLLEVYDLAEVKVDDISVARLVRLIAELDPSEPNLKDVITGMNNWSIKFSEYKFGDPYLHNTIGSKLLEGDFVYEAERYFMLGTHDSMIKYVDLLWDWLCQVDDIEDSTVAEFFSRLVFNYLFISNISFAHESKDIFLERFIEKFHPKYEKIDKNGYEIVFFEDYSDLNFLQLLLITCQTKDKSYFLNLKNHYLDFSQAYKSELEFLGQEYFNIVAPKQTNFLQDMMSGFLGGSK

Soluble on expression in E. coli, not soluble:
MQGQKIPATVITGFLGSGKTTMIRNLLENANGKRIALIINEFGDLGVDGGILKRCGIETCREEDVIELNNGCICCTVADDFIPTMTKLLDREDRPDHIVIETSGLALPQPLVAAFNWPEIKTQVTVDGVVTVIDAAAVAEGRFADDHDKVDAQRAADESLDHESPLEELFEDQIHAADLIVLNKADLIDAAKLDSVKADVAERSSRRVNMVPASFGKLGADVLLGLGVGTEDDIVNRRSHHEAHHGDGHEHDHDEFESFVVEAGSVADPKAFAEKLKAVIAEHDILRLKGFVDVPGKPMRLVVQAVGPRIEHYFDRPWGKDETRSTRLVVIGLHDIDEAAIAQAVKDADLEHHHHHH
MVDESKLQCYHKGCGLLFDPKENDNEACTYHPGGPYFHDAYKIWTCCDKKSTDFGTWMNYKGCTRGKHSNEKPVDIVKVAAVKEIRPEKEEDVIVWKGLNKSGKLDSKDATKRIEQNLNVEVTPGATAAIEKKLKEISEAAQSADIQIGAPCRNNGCSTEFDGSKNKENCQHHPGAAIFHEGMKYWSCCNKKTSNFGAFLEQVGCTSGEHKFRNNEIVSKFREDWFSSNGFVTINVYCRGALPETANIVSDGHTVRVSMKHGFGNASVDLDYDLWDEVIPEESRVVIGERKVEISLKQKHGTGWPRLKFDPELDAKNDEEA
MGSDKIHHHHHHMTNLNEKQLITEIVGLARSQGLTVHSENAQLNETGMDFQVVFAKDDTGMPWVLRKPRRSDVVERASAEGITLAFLRANLTADVPDWRIHTPELIAYPMLKGTPAAGIDLEQKQYVWNMDHQPPSDDFVRTLADILAELHGTDQISAGQSGIEVIRPEDFRQMTADSMVDVKNKLGVSTTLWERWQKWVDDDAYWPGFSSLIHGDLHPPHILIDQNGRVTGLLDWTEAKVADPAKDFVLYQTIFGEKETARLLEYYDQAGGRIWAKMQEHISEMQAAYPVEIAKLALQTQQEEHINMALEALGVTSD
MSEGWNIAVLGATGAMGEALLETLAERQFPVGEIYALARNESAGEQLRFGGKTITVQDAAEFDWTQAQLAFFVAGKEATAAWVEEATNSGCLVIDSSGLFALEPDVPLVVPEVNPFVLTDYRNRNVIAVPDSLTSQLLAALKPLIDQGGLSRISVTSLISASAQGKKAVDALAGQSAKLLNGIPIDEEDFFGRQLAFNMLPLLPDSEGSVREERRIVDEVRKILQDEGLMISASVVQAPVFYGHAQMVNFEALRPLAAEEARDAFAQGEDIVLSEENEFPTQVGDASGTPHLSVGCVRNDYGMPEQVQFWSVADNVRFGGALMAVKIAEKLVQEYLY
MIFAAIADIHGNCAALEAVLEDIAKLGIKDIVNLGDCFSGPLEAGFTGDVLVGNWIPSIRGNHDRELIERAPENMGSWEKPAHAQLTAAHLDWLHTLPFSMVFRDVAYCCHGSPLGDLDYWLETLSPEGVLKLRPLAEIEERAEGITQPLMLCGHTHIPRAVQLSDGRLIVNPGSVGCPGWKDDTPFDHHVEAGHALATYAVLEETGRGWQVYFRNIRYDNLAMSEMARVNGIPYLADALTNGWLKR
MGSDKIHHHHHHMKIIKLRNNSPEFNYKMIVLARESRGIGQRELATLVETDQGNLSRIEKGAQTPVKDMIERISKALDYPVSFFRLQHSVYDFSKSYYRRKLKMPKKEIELSEAKINISKINIETLIRAVELPEPNYPTFDLSKDLSASACAIQLRKYWKLPHGRVENFTKVLEDNGVLVANIDFAGIEVDGHAILTENNLPIIFINKNITADRYRLTLAHELGHLCLHVGREIAEDRDVEQEAFMFAAELLTPEVEIAPDLCEVSIEKLKELKKYWKVSMGSLLKRAHVLKGVSDNQYKYLWQQMGNMGYKTVEPKELEFEKEKPKLLKEIIDAHLEELQYSEDELSELLGLKIQEFAKSYAPARPRLRVSKGKAR
MEYKPIRKVVSGNYAAAYAALHARVQVVAAYPITPQTSIIEKIAEFIANGEADIQYIPVESEHSAMAACIGASATGARTFTATSAQGLALMHEMLHWAAGARLPIVMVDVNRAMAPPWSVWDDQTDSLSQRDTGWMQFYAENNQEVYDGVLMAYKVAETVNVPAMVVESAFILSHTYDVVEMIPQELVDEFLPPRKPLYSLANFDEPIAVGALATPNDYYEFRYKLAKAHEEAKKVIKEVGKEFGERFGRDYSQMIETGYIDDADFVFMGMGSLMGTVKEAVDLLRKEGYKVGYAKVRWFRPFPKEELVEIAESVKGIAVLDRNFSFGQEGILFTESKGALYNSSAHPLMKNYIVGLGGRDVTVKDIKAIADDMKKVIESGKVDKEVVWYHLKR
MQFLQKFPPFNQMENAHLAYLVEQCQLRFYAADESIIKPGDGPVEHFYIVKQGRIVGERPHSAKRGTETTFEITTGECFPLAALLGERATRTEHLAAEDTFCLQLNKQAFIKLFALSTTFRDFALRGVSSLLDQVNQQVQQRAAETLGTQYSLNTRLGELAMRHPVMCSPDMPMRDAVKLMHEQQVGSIVIVDEQQAPLGIFTLRDLREAVADVNADFSAPVKNTMSPSPFHLSPDASAFDAAIAMTGRHIAHVCLVRDGRLCGVVSERDLFSLQRVDLVHLARTIRNAPRIEALAGLRGDIVQLVDRMLAHGASSTQITQIITLLNDHTVCRVIELTLAEKGDPGVPFSWLCFGSEGRREQTLHTDQDNGILFEASDATEAEQIRTLLLPIAERINQSLAQCGFTLCKGNIMAGNPDLCLSRLEWSRRFSAFIREATPENLLASSIYFDLRVVWGDESGGGQLRRGILDQVADNRLFQRMMAENALRQRPPVGRFKDFVLARKGSEKDTLDLKTEGLTPFVDGARLLALANGIGVNNTQERLRQLVEREVIDPLDGAAYEEAYHFIQQTRMQQHQLQSRQNLAYSNRIDPDTLNHLDRRILRESFRQAQRLQMSLTMRYQL
MNVSHISAVSYYFARYIQEVLEVPVGIVVSTWGGSKIEAWMSRESIKPFSSIDLSILDNDAEVKNPTATPCVLYNGKIAPLTNFAVRGFLWYQGESNRDNADLYQSLMPAFVADLRAKWGRGELPFYFVQIAPFDYEGADGTSAARLREVQLQNMKDIPNSGMVTTMDVGHPVFIHPVDKETVGNRLAYWALAQTYGMKGFGYAPPVYKSMEIQENKIYINFYNAQRGLSPMWTSLKGFEIAGEDKVFYPAFAEIETTTARLAVSSDKVSHPVAVRYAYKNYVEASIFSIHGIPAAPFRTDNWLEHHHHHH
MFTGLHDILIILFLLVTLKIAQNVDHTKFLQKYGYLTSGDNQLSSESLSDALKNMQRMAGLEETGELDERTIQMMERPRCGHPDVEDHQKSRGKRYAPPQFKWKEKIITYGCKAVGTSTRISLDDLRRTMHQAASQWSELADVEIVESSVKNPMMVISAGRENHYPCTVRFDTKTLAHAFFPTNGQIHINDRVQFAMTNYTERMGANSLYSVVAHEMGHALGFSHSPDIDSVMFAYDTPRKWKFTSMDKYNMRSYYGAKASKKENEEEERKTENEDKRRKTEKDRGRTREHESDDIRPNECRVENPIVVQYRGEYLIFKSQWVWRVSSDWKRLIIKAVPINQLFPGLPNPIDAAVTVGHNLWVFVGEMIYVIYGNHMVHAPLRLSDIGINEKYVDLAYEWHYFNPPAVYIWKGSRYWKLDEKMYHRRVDERYPKDTDLNWARVPKGVHSAFTYEKEIHLLRGNQVFRMNSSRSVFDIADGYPQPLQSFFGFCPRNEKLVLNSSSSHFSLIYATITILILIF
MRDTFPSLQAQHLHGIDEQALRPAFSTHKPRILILYGSLREVSYSRLLAFEAGRLLERLGCEVRIFDPKGLPLPDETPASHAKVQELRDLSQWSEGQVWVSPERHGAMTGIMKSQIDWIPLAVGSVRPTQGKTLAVMEVSGGSQSFNAVNQMRILGRWMRMITIPNQSSVARAFQEFDEDGRMRPSSYYDRVVDVCEELVKFTLLTRDASAYLTDRYSERKEQAAELEKRVSLKS
